Experimental data taken from article PMC3110666 (Nature cell biology, 2011).

Target: the molecule itself
Assay: cross-linking

B1: G6PD of MEF cells (enzyme, mouse (endogenous in MEF), UniProt Q00612 1-515, looked up)
chain: MAEQVALSRTQVCGILREELYQGDAFHQADTHIFIIMGASGDLAKKKIYPTIWWLFRDGLLPEDTFIVGYARSRLTVDDIRKQSEPFFKATPEERPKLEEFFARNSYVAGQYDDAASYKHLNSHMNALHQGMQANRLFYLALPPTVYEAVTKNIQETCMSQTGWNRIIVEKPFGRDLQSSNQLSNHISSLFREDQIYRIDHYLGKEMVQNLMVLRFANRIFGPIWNRDNIACVILTFKEPFGTEGRGGYFDEFGIIRDVMQNHLLQMLCLVAMEKPATTGSDDVRDEKVKVLKCISEVETDNVVLGQYVGNPNGEGEAANGYLDDPTVPHGSTTATFAAAVLYVENERWDGVPFILRCGKALNERKAEVRLQFRDVAGDIFHQQCKRNELVIRVQPNEAVYTKMMTKKPGMFFNPEESELDLTYGNRYKNVKLPDAYERLILDVFCGSQMHFVRSDELREAWRIFTPLLHKIDREKPQPIPYVYGSRGPTEADELMKRVGFQYEGTYKWVNPHKL
  stoichiometry N: 2
